Drawing on article PMC2914686, this text covers Km for one protein.

Substrate in this data set: C[S+](CC[C@H](N)C(=O)[O-])C[C@H]1O[C@@H](n2cnc3c(N)ncnc32)[C@H](O)[C@@H]1O
As to the kind of experiment: Michaelis-Menten kinetics. In kind it is biochemical, Homo sapiens.

B1: G9a (Homo sapiens) (protein)
chain: NRAIRTEKIICRDVARGYENVPIPCVNGVDGEPCPEDYKYISENCETSTMNIDRNITHLQHCTCVDDCSSSNCLCGQLSIRCWYDKDGRLLQEFNKIEPPLIFECNQACSCWRNCKNRVVQSGIKVRLQLYRTAKMGWGVRALQTIPQGTFICEYVGELISDAEADVREDDSYLFDLDNKDGEVYCIDARYYGNISRFINHLCDPNIIPVRVFMLHQDLRFPRIAFFSSRDIRTGEELGFDYGDRFWDIKSKYFTCQCGSEKCKHSAEAIALEQSRLARLD
The term Km denotes the substrate concentration at which the rate is half of its maximum. Regarding B1, the Km came out at 31.7 µM.
